Measurements published in article PMC2715106 (PLoS ONE, 2009).

Key:
Conditions in all cases: both partners purified
[1] = target: T1, terbium-labeled core RNA polymerase (E. coli, UniProt P0A7Z4 1-329; P0A8V2 1-1342; P0A8T7 1-1407; P0A800 1-91, CS124-DTPA-Phe-NCS-Tb-chelate on randomly labeled lysine residues of core RNAP, 1:1 ratio of Tb-chelate to molecule of core; which subunit is not told | CS124-DTPA-Phe-NCS-Tb-chelate on randomly …); test: FRET or BRET; LRET saturation binding, homogeneous; fluorescein-sigma serially diluted, 10 nM Tb-core; TG (50 mM Tris-HCl pH 7.9, 5% glycerol) + 100 mM KGlu; 1 h at 22°C; [core]0 set at 5 nM in the fit
T1 construct: E. coli RNA polymerase α subunit; E. coli RNA polymerase β subunit; E. coli RNA polymerase β' subunit; E. coli RNA polymerase ω subunit; also called Tb-core; Tb-core RNAP; copies: 2 + 1 + 1 + 1
T1 sequence (P0A7Z4 whole entry, chain 1 of 4): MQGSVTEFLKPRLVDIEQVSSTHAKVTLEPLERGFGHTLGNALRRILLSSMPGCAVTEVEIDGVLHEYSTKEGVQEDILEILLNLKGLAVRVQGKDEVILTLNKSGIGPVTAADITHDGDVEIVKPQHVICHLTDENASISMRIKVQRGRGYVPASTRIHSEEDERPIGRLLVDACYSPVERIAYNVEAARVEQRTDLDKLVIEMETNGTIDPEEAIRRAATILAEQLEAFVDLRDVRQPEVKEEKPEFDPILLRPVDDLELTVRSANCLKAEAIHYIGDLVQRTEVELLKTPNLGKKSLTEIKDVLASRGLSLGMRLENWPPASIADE
T1 sequence (P0A8V2 whole entry, chain 2 of 4): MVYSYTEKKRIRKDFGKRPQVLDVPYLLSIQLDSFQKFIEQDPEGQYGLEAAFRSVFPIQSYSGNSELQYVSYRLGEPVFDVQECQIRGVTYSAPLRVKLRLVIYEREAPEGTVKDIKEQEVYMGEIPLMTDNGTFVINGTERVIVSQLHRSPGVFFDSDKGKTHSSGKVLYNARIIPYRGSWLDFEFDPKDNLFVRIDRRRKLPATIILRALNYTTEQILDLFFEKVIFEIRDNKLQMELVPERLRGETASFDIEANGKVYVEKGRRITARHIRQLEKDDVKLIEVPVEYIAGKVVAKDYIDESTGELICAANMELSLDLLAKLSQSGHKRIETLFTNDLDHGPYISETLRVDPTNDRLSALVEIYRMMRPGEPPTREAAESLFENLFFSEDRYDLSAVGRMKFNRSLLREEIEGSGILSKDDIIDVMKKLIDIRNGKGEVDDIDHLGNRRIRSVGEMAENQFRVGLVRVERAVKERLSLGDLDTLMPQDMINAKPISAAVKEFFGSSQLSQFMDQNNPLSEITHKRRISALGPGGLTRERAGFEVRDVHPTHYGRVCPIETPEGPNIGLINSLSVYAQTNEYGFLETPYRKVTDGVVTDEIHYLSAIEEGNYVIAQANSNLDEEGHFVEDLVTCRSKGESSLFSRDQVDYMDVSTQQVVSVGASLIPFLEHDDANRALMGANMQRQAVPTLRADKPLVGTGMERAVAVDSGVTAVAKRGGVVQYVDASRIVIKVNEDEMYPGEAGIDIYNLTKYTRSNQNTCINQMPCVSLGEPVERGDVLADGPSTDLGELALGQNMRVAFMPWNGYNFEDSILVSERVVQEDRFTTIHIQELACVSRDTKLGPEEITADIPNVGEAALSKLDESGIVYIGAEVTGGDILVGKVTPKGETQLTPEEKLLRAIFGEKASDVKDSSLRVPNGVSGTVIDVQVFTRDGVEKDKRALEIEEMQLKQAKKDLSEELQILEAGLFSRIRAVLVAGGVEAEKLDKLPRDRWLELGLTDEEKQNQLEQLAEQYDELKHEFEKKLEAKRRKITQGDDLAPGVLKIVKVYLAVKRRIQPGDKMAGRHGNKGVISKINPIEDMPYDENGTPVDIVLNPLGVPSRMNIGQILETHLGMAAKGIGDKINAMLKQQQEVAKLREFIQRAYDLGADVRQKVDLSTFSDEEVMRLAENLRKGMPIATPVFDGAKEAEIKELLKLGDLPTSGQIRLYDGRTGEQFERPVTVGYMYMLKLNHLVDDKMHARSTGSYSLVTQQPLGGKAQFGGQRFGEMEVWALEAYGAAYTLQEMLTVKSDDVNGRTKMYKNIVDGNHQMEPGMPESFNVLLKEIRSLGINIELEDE
T1 sequence (P0A8T7 whole entry, chain 3 of 4): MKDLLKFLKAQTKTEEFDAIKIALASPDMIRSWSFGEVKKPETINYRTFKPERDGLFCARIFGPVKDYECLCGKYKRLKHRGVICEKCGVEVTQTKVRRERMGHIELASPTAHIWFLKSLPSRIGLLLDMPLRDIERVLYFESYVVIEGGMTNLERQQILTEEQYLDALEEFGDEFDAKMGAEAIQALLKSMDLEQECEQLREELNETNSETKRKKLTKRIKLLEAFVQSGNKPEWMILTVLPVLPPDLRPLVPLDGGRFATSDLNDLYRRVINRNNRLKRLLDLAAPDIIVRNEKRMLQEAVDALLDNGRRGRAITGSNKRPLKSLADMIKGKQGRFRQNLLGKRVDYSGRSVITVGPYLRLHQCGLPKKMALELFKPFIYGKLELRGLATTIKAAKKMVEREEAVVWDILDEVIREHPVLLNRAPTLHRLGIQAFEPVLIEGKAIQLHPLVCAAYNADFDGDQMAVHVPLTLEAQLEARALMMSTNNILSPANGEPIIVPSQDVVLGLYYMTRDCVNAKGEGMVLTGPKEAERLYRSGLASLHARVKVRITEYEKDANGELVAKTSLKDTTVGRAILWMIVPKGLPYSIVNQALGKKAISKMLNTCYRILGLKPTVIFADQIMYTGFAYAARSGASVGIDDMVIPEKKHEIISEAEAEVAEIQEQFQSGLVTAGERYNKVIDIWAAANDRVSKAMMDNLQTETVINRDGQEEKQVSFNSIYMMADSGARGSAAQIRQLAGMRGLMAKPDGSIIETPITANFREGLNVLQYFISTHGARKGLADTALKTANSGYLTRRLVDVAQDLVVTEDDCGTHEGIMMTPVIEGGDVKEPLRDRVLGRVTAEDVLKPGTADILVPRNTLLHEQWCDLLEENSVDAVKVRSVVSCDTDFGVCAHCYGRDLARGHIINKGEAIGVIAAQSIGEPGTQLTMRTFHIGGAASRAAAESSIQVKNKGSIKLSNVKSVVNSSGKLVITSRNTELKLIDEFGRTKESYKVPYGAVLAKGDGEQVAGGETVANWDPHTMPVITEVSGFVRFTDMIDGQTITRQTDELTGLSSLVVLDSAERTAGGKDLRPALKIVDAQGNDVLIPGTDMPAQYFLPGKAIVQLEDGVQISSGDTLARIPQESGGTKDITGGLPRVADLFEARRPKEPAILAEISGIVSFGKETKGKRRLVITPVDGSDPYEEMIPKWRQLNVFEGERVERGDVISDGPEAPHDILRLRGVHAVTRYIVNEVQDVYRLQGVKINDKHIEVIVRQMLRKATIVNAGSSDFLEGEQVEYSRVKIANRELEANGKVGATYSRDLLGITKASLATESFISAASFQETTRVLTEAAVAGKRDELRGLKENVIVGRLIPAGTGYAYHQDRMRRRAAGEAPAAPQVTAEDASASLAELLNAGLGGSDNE
T1 sequence (P0A800 whole entry, chain 4 of 4): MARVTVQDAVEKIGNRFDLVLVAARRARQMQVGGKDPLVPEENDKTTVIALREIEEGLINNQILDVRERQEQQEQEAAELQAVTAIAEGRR

[2] = target: T1, terbium-labeled core RNA polymerase; test: FRET or BRET; LRET saturation binding, homogeneous; fluorescein-sigma serially diluted, 10 nM Tb-core; TG (50 mM Tris-HCl pH 7.9, 5% glycerol) + 100 mM NaCl; 1 h at 22°C; [core]0 set at 5 nM in the fit
[3] = target: T1, terbium-labeled core RNA polymerase; test: FRET or BRET; LRET saturation binding, homogeneous; fluorescein-sigma serially diluted, 10 nM Tb-core; TG (50 mM Tris-HCl pH 7.9, 5% glycerol) + 250 mM KGlu; 1 h at 22°C; [core]0 set at 5 nM in the fit
[4] = target: T1, terbium-labeled core RNA polymerase; test: FRET or BRET; LRET saturation binding, homogeneous; fluorescein-sigma serially diluted, 10 nM Tb-core; TG (50 mM Tris-HCl pH 7.9, 5% glycerol) + 250 mM NaCl; 1 h at 22°C; [core]0 set at 5 nM in the fit
[5] = target: T1, terbium-labeled core RNA polymerase; test: FRET or BRET; LRET saturation binding, homogeneous; fluorescein-sigma serially diluted, 10 nM Tb-core; TG (50 mM Tris-HCl pH 7.9, 5% glycerol) + 500 mM KGlu; 1 h at 22°C; [core]0 set at 5 nM in the fit
[6] = target: T1, terbium-labeled core RNA polymerase; test: FRET or BRET; LRET saturation binding, homogeneous; fluorescein-sigma serially diluted, 10 nM Tb-core; TG (50 mM Tris-HCl pH 7.9, 5% glycerol) + 500 mM NaCl; 1 h at 22°C; [core]0 set at 5 nM in the fit

B1: fluorescein-σ32 (natural protein, E. coli, UniProt P0AGB3 1-284, looked up)
chain: MTDKMQSLALAPVGNLDSYIRAANAWPMLSADEERALAEKLHYHGDLEAAKTLILSHLRFVVHIARNYAGYGLPQADLIQEGNIGLMKAVRRFNPEVGVRLVSFAVHWIKAEIHEYVLRNWRIVKVATTKAQRKLFFNLRKTKQRLGWFNQDEVEMVARELGVTSKDVREMESRMAAQDMTFDLSSDDDSDSQPMAPVLYLQDKSSNFADGIEDDNWEEQAANRLTDAMQGLDERSQDIIRARWLDEDNKSTLQELADRYGVSAERVRQLEKNAMKKLRAAIEA
modifications: fluorescein on randomly labeled lysine residues, 2:1 ratio of fluorescein to molecule of protein
notes: E. coli heat shock sigma factor σ32 (RpoH); also called F-σ32; RpoH
[1]
  Kd: 0.3 nM
[2]
  Kd: 0.8 nM
[3]
  Kd: 1.3 nM
[4]
  Kd: 0.6 nM
[5]
  Kd: 2 nM
[6]
  Kd: 2.4 nM
